From ChEMBL document CHEMBL2073814, “Involvement of organic cation transporter 1 in hepatic and intestinal distribution of metformin” (J Pharmacol Exp Ther, 2002) come the findings set out here.

For data set [1], the target named is T1, Solute carrier family 22 member 1 (Mus musculus, UniProt O08966).
T1 sequence (O08966 whole entry): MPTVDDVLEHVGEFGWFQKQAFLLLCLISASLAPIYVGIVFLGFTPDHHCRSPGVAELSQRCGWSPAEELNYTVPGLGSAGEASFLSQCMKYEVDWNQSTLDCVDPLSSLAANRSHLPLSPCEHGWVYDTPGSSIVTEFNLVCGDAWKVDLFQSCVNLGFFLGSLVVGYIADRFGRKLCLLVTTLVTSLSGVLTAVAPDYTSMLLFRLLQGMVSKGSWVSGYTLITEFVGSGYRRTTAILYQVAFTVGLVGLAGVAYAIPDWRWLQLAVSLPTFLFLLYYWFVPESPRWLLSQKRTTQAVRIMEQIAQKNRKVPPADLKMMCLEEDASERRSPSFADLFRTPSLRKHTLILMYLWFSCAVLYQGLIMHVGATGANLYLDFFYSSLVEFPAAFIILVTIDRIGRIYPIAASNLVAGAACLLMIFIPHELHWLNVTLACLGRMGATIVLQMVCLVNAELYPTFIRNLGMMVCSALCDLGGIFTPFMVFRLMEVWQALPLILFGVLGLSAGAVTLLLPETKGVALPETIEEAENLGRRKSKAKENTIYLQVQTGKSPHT
Description: TP_TRANSPORTER: decrease in liver concentration in Oct1 -/- mouse. The data set is classed as functional, organism-based. The settings on record: in vivo.

Data set [2] addresses T1, Solute carrier family 22 member 1. The experiment in a line: TP_TRANSPORTER: decrease in small intestine concentration in Oct1 -/- mouse. The format is functional, organism-based. The following applies: in vivo.
Substrate in data set [3]: CN(C)C(=N)N=C(N)N
The experiment in a line: (§1) TP_TRANSPORTER: uptake in OCT1-expressing CHO cells. The format is functional, cell-based.

Substrate in data set [4]: [H]/N=C(/N)N/C(=N/[H])NCCc1ccccc1
Described as §1. The format is functional, cell-based.

Substrate in data set [5]: CCCCNC(=N)NC(=N)N
The experiment in a line: cells, lysate or membranes named.

As for `CN(C)C(=N)N=C(N)N` [METFORMIN], the Activity result in data set [1] and in data set [2] was “substrate [+]” in each case.

B1: Solute carrier family 22 member 1 (Rattus norvegicus) (protein)
chain: MPTVDDVLEQVGEFGWFQKQAFLLLCLISASLAPIYVGIVFLGFTPGHYCQNPGVAELSQRCGWSQAEELNYTVPGLGPSDEASFLSQCMRYEVDWNQSTLDCVDPLSSLVANRSQLPLGPCEHGWVYDTPGSSIVTEFNLVCGDAWKVDLFQSCVNLGFFLGSLVVGYIADRFGRKLCLLVTTLVTSVSGVLTAVAPDYTSMLLFRLLQGMVSKGSWVSGYTLITEFVGSGYRRTTAILYQMAFTVGLVGLAGVAYAIPDWRWLQLAVSLPTFLFLLYYWFVPESPRWLLSQKRTTRAVRIMEQIAQKNGKVPPADLKMLCLEEDASEKRSPSFADLFRTPNLRKHTVILMYLWFSCAVLYQGLIMHVGATGANLYLDFFYSSLVEFPAAFIILVTIDRIGRIYPIAASNLVTGAACLLMIFIPHELHWLNVTLACLGRMGATIVLQMVCLVNAELYPTFIRNLGMMVCSALCDLGGIFTPFMVFRLMEVWQALPLILFGVLGLTAGAMTLLLPETKGVALPETIEEAENLGRRKSKAKENTIYLQVQTGKSSST
As usually defined, the Km is the concentration of substrate that gives half-maximal velocity. For B1, the Km in data set [3] amounted to 377 µM; in data set [4], 15.6 µM; in data set [5], 48.8 µM.
